# According to patent US6613329:
# Experiments:
# [1] = target: Crotalus durissus terrificus venom; test: ELISA, venom-coated wells; 1:5
# [2] = target: Crotalus durissus terrificus venom; test: ELISA, venom-coated wells; 1:25
# [3] = target: Crotalus durissus terrificus venom; test: ELISA, venom-coated wells; 1:125
# [4] = target: Crotalus durissus terrificus venom; test: ELISA, venom-coated wells; 1:625
# [5] = target: Crotalus durissus terrificus venom; test: ELISA, venom-coated wells; 1:3125
# [6] = target: Crotalus durissus terrificus venom; test: ELISA, venom-coated wells; 1:62,500
# [7] = target: Crotalus durissus terrificus venom; test: ELISA, venom-coated wells; 1:312,500
# [8] = target: Crotalus durissus terrificus venom; test: ELISA, venom-coated wells (5 µg/ml); 1:5
# [9] = target: Crotalus durissus terrificus venom; test: ELISA, venom-coated wells (5 µg/ml); 1:25
# [10] = target: Crotalus durissus terrificus venom; test: ELISA, venom-coated wells (5 µg/ml); 1:125
# [11] = target: Crotalus durissus terrificus venom; test: ELISA, venom-coated wells (5 µg/ml); 1:625
# [12] = target: Crotalus durissus terrificus venom; test: ELISA, venom-coated wells (5 µg/ml); 1:3125
# [13] = target: Crotalus durissus terrificus venom; test: ELISA, venom-coated wells (5 µg/ml); undiluted
substance,measurement,setting,value
preimmune chicken IgY (PEG prep) (antibody),ELISA absorbance,[1],< 0 absorbance
same,ELISA absorbance,[2],0.016 absorbance
same,ELISA absorbance,[3],< 0 absorbance
same,ELISA absorbance,[4],< 0 absorbance
same,ELISA absorbance,[5],< 0 absorbance
same,ELISA absorbance (absorbance (412 nm filter)),[6],0.001
same,ELISA absorbance (absorbance (412 nm filter)),[7],0.01
same,ELISA absorbance,[8],< 0 absorbance
same,ELISA absorbance,[9],0 absorbance
same,ELISA absorbance,[10],0.003 absorbance
same,ELISA absorbance,[11],0 absorbance
same,ELISA absorbance,[12],0.002 absorbance
same,ELISA absorbance,[13],0.003 absorbance
